Source: article PMC2901922

Key:
Assay in all cases: EMSA
λN22 = biological target: T1, λN22 (bacteriophage λ, UniProt P03045 1-22)
T1 chain: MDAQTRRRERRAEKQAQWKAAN

Acr-Link2-λN22 = biological target: T2, Acr-Link2-λN22 (bacteriophage λ, UniProt P03045 1-22)
T2 chain: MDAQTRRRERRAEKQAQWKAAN

λN11 = biological target: T3, λN11 (bacteriophage λ, UniProt P03045 1-11)
T3 chain: MDAQTRRRERR

Measured: binding result

GCCCUGAAAAAGGGC (structured_RNA) [λ boxB 15mer]
binds: all assays above
